Experimental data: PMC11196586, “Molecular insight into interactions between the Taf14, Yng1 and Sas3 subunits of the NuA3 complex” (Nature Communications, 2024)

How the values were obtained:
Taf14FL-601 DNA complex = assay: EMSA of 601 Widom DNA with Taf14FL with or without peptide; format: biochemical, Saccharomyces cerevisiae; settings: protein preincubated with peptide at 1:2.5 molar ratio; 8% native polyacrylamide gel
Method: (§1) EMSAs were performed by mixing increasing amounts of Taf14 proteins with 0.25 pmol/lane of 601 DNA in 25 mM Tris-HCl pH 7.5, 25-100 mM NaCl, 0.2 mM ethylenediaminetetraacetic acid (EDTA), 10% glycerol and 1 mM DTT in 10 µL reaction volume. The Taf14 proteins were either preincubated with Yng1EBM at a 1:2.5 molar ratio or with Yng1EBM and Sas3EBM at a 1:1:1 molar ratio for a minimum of 1 h on ice or used without peptides prior to addition of DNA. Reaction mixtures were incubated at 4 °C for 10 min (2-2.5 µl of loading dye was added to each sample) and loaded onto an 8% native polyacrylamide gel. Electrophoresis was performed in 0.5x Tris-borate-EDTA (TBE) at 80–120 V on ice. The gels were stained with SYBR Gold (Thermo Fisher Sci) and visualized by Blue LED (UltraThin LED Illuminator-GelCompany).

Taf14ET-601 DNA complex = assay: EMSA of 601 Widom DNA with Taf14ET with or without peptide; format: biochemical, Saccharomyces cerevisiae; settings: protein preincubated with peptide at 1:2.5 molar ratio; 8% native polyacrylamide gel
Method: as §1

Taf14YEATS = assay: NMR 1H,15N HSQC titration, Taf14YEATS; format: binding, Saccharomyces cerevisiae; settings: 298 K
Method: (§2) Nuclear magnetic resonance experiments were performed at 298 K on Varian INOVA 900 MHz (for Taf14FL) and 600 MHz (for Taf14ET and Taf14YEATS) spectrometers equipped with cryogenic probes as described. The NMR samples contained 0.05–0.2 mM uniformly ^15N-labeled Taf14 proteins in 50 mM Tris-HCl (pH 6.8–7.5), 150 mM NaCl, 0–5 mM DTT or 1x PBS (pH 6.6–7.5), supplemented with up to an additional 100 mM NaCl, 0–5 mM DTT or 0.2 mM TCEP and 8-10% D2O. Binding was characterized by monitoring chemical shift changes in ^1H,^15N HSQC spectra of the proteins induced by the addition of wild type or mutated Yng1EBM (aa 113-124), Sas3EBM (aa 111-122) and Yng1EBM-PHD (aa 100-219). NMR data were processed and analyzed using NMRPipe as previously described, with the apparent Kds being determined by a nonlinear least-squares analysis and a 1:1 stoichiometry in GraphPad Prism using the equation:2 Δδ=ΔδmaxL+P+Kd−L+P+Kd^2−4PL/2P Where [L] is the concentration of the peptide, [P] is concentration of the protein, Δδ is the observed chemical shift change, and Δδ max is the normalized chemical shift change at saturation. Normalized chemical shift changes were calculated using the equation δ=ΔδH^2+(ΔδN/5)^2 (3), where Δδ is the change in chemical shift in parts per million (ppm).

Taf14ET = molecular target: T1, Taf14ET (Saccharomyces cerevisiae, UniProt P35189); assay: NMR 1H,15N HSQC titration (chemical shift perturbations), Taf14ET; format: binding; settings: 15N-labelled Taf14ET, 298 K, increasing amounts of mutated peptide
T1 construct: Taf14ET (aa 168-243); His; made in house; host or cells: Escherichia coli Rosetta-2 (DE3) pLysS
T1 sequence (P35189 168-243): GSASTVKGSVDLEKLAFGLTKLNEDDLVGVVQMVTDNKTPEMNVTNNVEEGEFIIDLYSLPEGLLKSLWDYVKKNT
Method: as §2

[1] = molecular target: T2, Taf14FL (full length Taf14, aa 1-244) (S. cerevisiae, UniProt P35189 1-244); assay: other fluorescence titration; tryptophan fluorescence, 25 °C; 1 μM Taf14ET or Taf14FL, increasing peptide; 50 mM Tris-HCl pH 6.8 or 7.5, 150 mM NaCl, 1 mM DTT or 0.2 mM TCEP; excitation 295 nm; apparent Kd, 1:1 stoichiometry; settings: both partners purified
T2 construct: Taf14, S. cerevisiae, UniProt P35189, aa 1-244; uniformly 15N-labelled for NMR; also called transcription initiation factor subunit 14
T2 sequence (looked up): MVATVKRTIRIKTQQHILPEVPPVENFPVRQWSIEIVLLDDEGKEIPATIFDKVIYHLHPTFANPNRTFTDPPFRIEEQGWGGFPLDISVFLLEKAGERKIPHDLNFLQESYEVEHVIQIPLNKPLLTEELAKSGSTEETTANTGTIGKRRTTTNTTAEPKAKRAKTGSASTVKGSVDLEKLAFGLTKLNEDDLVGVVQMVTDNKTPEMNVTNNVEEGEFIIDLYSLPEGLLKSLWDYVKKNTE

[2] = molecular target: T3, Taf14ET (extra-terminal domain of Taf14, aa 168-243) (S. cerevisiae, UniProt P35189 168-243); assay: as above; settings: both partners purified
T3 construct: Taf14, S. cerevisiae, UniProt P35189, ET domain, aa 168-243; Uniformly 15N-labelled for NMR; also called ET domain of Taf14
T3 sequence (looked up): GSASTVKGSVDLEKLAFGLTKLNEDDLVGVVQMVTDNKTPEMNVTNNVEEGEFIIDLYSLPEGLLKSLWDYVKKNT

His-Taf14FL (aa 1-244) = molecular target: T4, His-Taf14FL (aa 1-244) (S. cerevisiae, UniProt P35189 1-244, labeled using a His-Tag Labeling Kit RED-tris-NTA (2nd Generation)); assay: MST; His-tagged Taf14 labeled with RED-tris-NTA, kept at 10 nM; unlabeled peptide added stepwise; 20 mM Tris-HCl pH 7.5, 150 mM NaCl, 2.5 mM DTT or 0-0.2 mM TCEP; apparent Kd, 1:1 stoichiometry; settings: both partners purified
T4 construct: Taf14, S. cerevisiae, UniProt P35189, aa 1-244; His-tagged form used for MST; source: E. coli Rosetta-2 (DE3) pLysS, purified (Ni-NTA, SEC)
T4 sequence (looked up): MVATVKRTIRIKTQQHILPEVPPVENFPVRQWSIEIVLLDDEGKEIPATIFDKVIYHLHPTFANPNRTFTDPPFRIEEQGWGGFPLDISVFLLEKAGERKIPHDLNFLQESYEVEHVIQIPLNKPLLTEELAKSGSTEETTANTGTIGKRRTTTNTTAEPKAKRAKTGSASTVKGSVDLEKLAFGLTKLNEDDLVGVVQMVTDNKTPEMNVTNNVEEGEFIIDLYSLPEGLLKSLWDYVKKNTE

[3] = molecular target: T2, Taf14FL (full length Taf14, aa 1-244); assay: other fluorescence titration; tryptophan fluorescence of Taf14FL with Yng1EBM in the presence of H3K9cr peptide at a 1:10 Taf14FL:H3K9cr molar ratio; apparent Kd, 1:1 stoichiometry; settings: both partners purified
[4] = molecular target: the molecule itself; assay: crystal structure; Taf14ET co-crystallized with Yng1EBM peptide (molar ratio 1:2.5); 40% PEG 400, 0.1 M Tris pH 8.5, 0.2 M LiSO4; 1.9 Å
[5] = molecular target: T3, Taf14ET (extra-terminal domain of …); assay: NMR titration; 1H,15N HSQC of 0.05-0.2 mM 15N-labeled Taf14 proteins, 298 K, unlabeled peptide or Yng1EBM-PHD added; Tris-HCl or PBS, pH 6.6-7.5; apparent Kd from CSPs, 1:1 stoichiometry; settings: both partners purified

In the case of Ac-EPKLLLKINLKK-NH2 [Yng1EBM], the “effect of peptide on binding of Taf14FL to 601 DNA (EMSA)” value (Taf14FL-601 DNA complex) is reported as “enhanced”, the “effect of peptide on DNA binding activity of isolated Taf14ET (EMSA)” value (Taf14ET-601 DNA complex) is reported as “increased” and the “CSPs induced in 15N-labeled Taf14YEATS” value (Taf14YEATS) is reported as “No CSPs”.

“V116D Sas3EBM: Sas3EBM peptide with single point substitution V116D (SEELKDRIKYDS)” was tested, and the “binding of wild type Taf14ET judged by CSPs in 1H,15N HSQC spectra” value (shortened to “binding of wild type Taf14ET judged”) (Taf14ET) was “abrogated binding”.

For “I120D Yng1EBM: Yng1EBM peptide with I120 replaced with aspartate (EPKLLLKDNLKK)”, the “binding of wild type Taf14ET judged” value (Taf14ET) was “almost negligible CSPs”.

“I118D Sas3EBM: Sas3EBM peptide with single point substitution I118D (SEELKVRDKYDS)” was tested, and the “binding of wild type Taf14ET judged” value (Taf14ET) was “abrogated binding”.

B1: Yng1EBM peptide (aa 113-124 of Yng1), Ac-EPKLLLKINLKK-NH2 (peptide)
peptide: Ac-EPKLLLKINLKK-NH2
notes: also called Yng1 peptide; source: synthetic peptide (Synpeptide)
With B1 the Kd [1] was 1.1 µM, the Kd [2] was 0.6 µM and the Kd (His-Taf14FL (aa 1-244)) was 1.2 µM. For the same molecule, the Kd [3] was 0.9 µM and the “stoichiometry N” value [4] was 2.

B2: L118D Yng1EBM peptide (aa 113-124 of Yng1) (peptide, UniProt Q08465 113-124, looked up)
peptide: EPKLLDKINLKK
notes: The wild-type peptide is Ac-...-NH2; source: peptide
With B2 the Kd [5] was 430 µM.

B3: L116D Yng1EBM peptide (aa 113-124 of Yng1) (peptide, UniProt Q08465 113-124, looked up)
peptide: EPKDLLKINLKK
notes: as for B2
For B3, the Kd [5] was 180 µM.
